From the nanobody polyreactivity screen of Harvey et al. (2022)

test: yeast display, Sf9 membrane polyspecificity reagent, FACS + sequencing; frameworks hold sequencing errors
In short: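 Galactose-induced (36–48 hours) yeast carrying a synthetic nanobody display library were exposed to 10% biotinylated, detergent-solubilized Sf9 membrane reagent at 4 °C for 1 hour. FACS followed streptavidin microbead enrichment, using low and high (top ~1%) gates for expression (anti-HA) and reagent binding (streptavidin). Colony PCR, MiSeq 2 × 250 sequencing and CDR-length filtering followed. Labels for polyreactivity reflect the gate of origin.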

Row | Sequence | polyreactivity (PSR sort gate)
1 | QVQLVESGGGLVQAGGSLRLSCAASGSIFGWYAMGGYRQAPGKESELVASISVTAGSTYYADSVKWRFTMSRDYAKNTVYLQMNSLKPEDTAVYYCAADDYTADAVQRFYYWGQGTQVTVSS | low polyreactivity
2 | QVQLVESGGGLVQAGGSLRLSCAASGFTFVINDMGWNRQAPGKERELVADITSGGDTYYADSVKGRFTISRDNAKNTVDLQMNSLKPEDTAVYYCAADIYPDWIYLLYGYWGQGTQVTVSS | low polyreactivity
3 | QVQLVESGGGLVQAGGSLRLSCAASGITYFEYAMGWYRQATGKETELVAGIRFSGSTTYYADSVKGRFTISRDNAKNTVYLQMNSLKPEDTAVYYCNVDYYSGLYDYDSWGQGTQVTVSS | low polyreactivity
4 | QVQLVESGGGLVQAGGSLRLSCAASGSIFYGYAMGWYRQAPGKERELVAAISGGGRTNYADSVKGRFTISRDNAKNTVYLQMNSLKPEDTAVYYCARRSQRGIYSMYYWGQGTQVTVSS | low polyreactivity
5 | QVQLVESGGGLVQAGGSLRLSCAASGFIFTYYAMGWYRQAPGKERELVAAISWDGGSTYYADSVKGRFTISRDNAKNTVYLQMNSLKPEDTAVYYCNRDLYGYVRYDYWGQGTQVTVSS | low polyreactivity
6 | QVQLVESGGGLVQAGGSLSLSCAASGRIFRYNAMGWYRQAPGKERELVATISRGGGSTYYADSVKGRFTISRDNAKNTVYLQMNSLKPEYTAVYYCAAVTYSRISGGYDYWGQGTQVTVSS | high polyreactivity
7 | QVQLVESGGGLVQAGGSLRLSCAASGSIFVIYALGWYRQAPGKERELVARITKSGGTTYYADSVKGRFTISRDNAKNTVYLQMNSLKPDDTAVYYCNVGYGGSSDGGYDYWGQGTQVTVSS | high polyreactivity
8 | QVQLVESGGGLVQAGGSLRLSCAASGFTFGVYAMGWYRQAPGKERELVAAISTTVGSTYYADSVKGRFTISRDNAKNTVYLQMNSLKPEDTAVYDCAAEYTGYINYYIYEYWGQGTQVTVSS | low polyreactivity
9 | QVQLVESGGGLVQAGGSLRLSCAASGRIFGIYAMGWYRQAPGKERELVAAITWNGGSTYYADSVKGRFTNSRDNAKNTVYLQMNSLKPEDTAVYYCAARTADYSYGRRVVTRYGYWGQGTQVTVSS | high polyreactivity
10 | QVQLVESGGGLVQAGGSLRLSCAASGRIIQYNAMGWYRQAPGKERELVAAISWRSRRTYYADSVKGRFTISRDNAKNTVYIQMNSLKPEDTAVYYCAATSRTSWYGYWGQGTQVTVSS | high polyreactivity
11 | QVQLVESGGVLDQAGGSLGLSCAASGRTLRKYAMGWYRQAPGKERELVAAITWTGGTTYYADSVKGRFTISRDNAKNTVYLQMNTLKPEDTAFYFCGTVRRYGYGYDYWGQGTQVTVSS | high polyreactivity
12 | QVQLVESGGGLVQAGGSLSLSCAASGITFYGYAMGWYRQAHGKERELVATIRRSTGSTYYADSVKGRFTISRDNAMNTVYLQMNSLKPEDTAVYYCATRVWFPITSYDYWGQGTKVTVSS | low polyreactivity
13 | QVQLVESGGGLVQAGGSLRLSCAASGSIFYKYTMGWYRPAPGKERELVAAITKSGGSTYYADSVKGRFTISRDNAKNTVYLQMNSLKPEDTAVYYCAARRYRYYSRGSWGQGTQVTVSS | high polyreactivity
14 | QDQLVESRGGLVQAGGSLRLSCAASGRIFLTNAMGWDRKAPGKERELVAAITSGGSTYYADSVKGRFTISRDNAKNTVFLQMNSVKPEDTAVYYCNADTDRYCPYEYDYWGQGTQVTVSS | low polyreactivity
15 | QVQLVESGGGLVQAGGSLRLSCAASGFTFVRYAMGWYRQAPGKERELVAAISSGGRTYYADSVKGRFTISRDNAKNTVYLQMNSLKPEDTAVYYCAAEKVGTRPSRDYDYWGQGTQVTVSS | high polyreactivity
16 | QVQLVESGGGLVQARGSLRLSCAASGFTFRSYTMGWYRQAHGKERELVAAITSRGTSTYYADSVKGRFTISLDNAKNTVYLQMNSLKPEDTAVYYCAAPIYNGYASWQVYYWGQGTQVTVSS | high polyreactivity
17 | QVQLVESGRGLVQAGGSLRLSCAASGSTFLGNAMGWYREAPGKARELVAAITSAGSTYYADSVKGRFTISRDNAKNTVYLQMNSLKPEDTAVYYCNADSTWGGYGFDDWGQGTQVTVSS | low polyreactivity
18 | QVQLVESGGGLDQAGGSLRLSCAASGRTFYYYAMGWYRQAPGIERELVAAISWSGGNTYYADSVKGRFTISRDNAKNTVYLQMNSLKPEDTAVYYCNRAYRTLTARTGRYDYWGQGTQVTVSS | high polyreactivity
19 | QVQLVESGGGLVQAGGSLRLSCAASGRTFYAYGMGWYRQAPGKERELVARISSSTGRTYYADSVKGRFTISRDNAKNTVYLQMNSLKPEDTAVYYCAALFYGYRGGGYGGPAAGDYWGQGTQVTVSS | high polyreactivity
20 | QVQLVESGGGLVQAGGSLRLSCAASGSIFWAYTMGWYRQAPGKERELVAAISASGGSTYYADSVKGRFTISRDNAKNTFYLQMNSLKPEDTAVYYCNKDYHRPYGGGSKGDYWGQGTQVTVSS | low polyreactivity
21 | QVQLVESGGGLVQAGGSLRLSCAASGRIFGYYAIGWYRQAPGKERELVAAITINGGRTYYADSVKGRFTISRDNAKNTVYLQMNSLKPEDTAVYYCTATSRYNRLGYWGQGTQVTVSS | high polyreactivity

Row | Sequence | polyreactivity (PSR sort gate)
22 | QVQLVESGGGLVQAGGSLRLSCAASGRISFINAMGWYRQAPGKEREFVAGITTDGGSTYYADSVKGRFTISRDNAKNTVYLQMNSLKPEDTAVYYCAAEGSVWYVYWGDIYDYWGQGTQVTVSS | low polyreactivity
23 | HVQLVESGGGLVQEGRSLRLSCAASGFTFVGNAMGWYRQATGKERELVAAIRWSSGSTYYADSVKWRFTISRDNAKNTVYLQMNSLKPDDTAVYYCNAVYSVFYEYDYWGQGTQVTVSS | low polyreactivity
24 | QVQLVESGGGLVQAGGSLRLSCAASGFTFTKYAMGWYRQAPGKERELVAAITSSGGGTYYADSVKGRFTISRDYAKNTVYLQMNRLKPVDTAVYYCARDSRTGYYYWGQGTQVTVSS | high polyreactivity
25 | QVQLVESGGGLVQAGGSLRLSCAASGFTLRLYVMGWYRQAPGKERELVAAITSSGGSTYYADSVKGRFTISRDNAKNTVYLQMNSLKPEDTAVYYCAAVNRKSQLYGYWGQGTQVTVSS | high polyreactivity
26 | QVQLVESGGGLVQAGGSLRLSCAASGITFSYNAMGWYRQAPGKERELVAAISSNSDSTYYADSVKGRFTISRDYAKNTVYLQMNRLKPEDTAVYYCAADTPDAPDYSGFYYWGQGTQVTVSS | low polyreactivity
27 | QVQLVESGGGLVQAGGSLRLSCAASGRTFYAYAMGWYRQAPGKERELVAAINTSGGRTYYADSVKGRFTISRDNAKNTVYLQMNSLKPEDTAVYYCAADVYTFYPRRYDYWGQGTQVTVSS | low polyreactivity
28 | QVQLVESGGGLVQAGGSLRLSCAASGRTFDVYAMGWYRQAPGKERELVATISYRSARTYYADSVKGRFTISRDNAKNTVYLQMNSLKPEDTAVYYCNAQSWRLYGHCYYWGQGTQVTVSS | high polyreactivity
29 | QVQLVESGGGLVQAGGSLRLSCAAYGSIIRRYAMGWYRQAPGKERELVATISSGSRTYYADSVKGRFTISRDNAKNTVYLQMNSLKPEDTAVYYCNARSRRVGLTLYNYWGQGTQVTVSS | high polyreactivity
30 | QVQLVESGGGLVQAGGSHRLSCAASGFIFSYYAKGRYRQAPGKERELVAAISSSGGTTYADSVKGRFTISRDNAKNTVYLHMNSLKPEDTAVYYCARVQYWFYKPMYYWGQGTQVTVSS | high polyreactivity
31 | QDQLVESGGGLVQAGGSLRLSCAASGSTFTGYTMGWYRQAPGKERELVAAITYRGGSTYYADSVKGRFTISRDNAKNTVYLQMNSLKPEDTAVYYCAAVPEYYEYTPYDYWGQGTQVTVSS | low polyreactivity
32 | QVQLVDSGGGIVQAGGSLRLSCAASGSTLKYNAMGWYRQAPGKERELVAAISTSGGNTYYADSVKGRFTISRDNAKNTVYLQMNSLKPEDTAVYYCAKVLGYYYYDYDSWGQGTQVTVSS | low polyreactivity
33 | QVQLVESGGGLVQAGGSLRLSSAASGLTIYYYAMGWYRQAPGKERELVAAITWRGGSTYYADSVKGRFTISRDNAKYPDYLQMNCLIPAVTAVYYSAADPGPYGYYYWGQGTQVTVSS | low polyreactivity
34 | QVQLVESGGGLVQAGGSLRLSCAASGSTFVNYAMGWYRQAPGKERELVAAITRGGRTYYADSVKGRFTISRDNAKNTVYLQMNSLKPEDTAVYYCAARRSYNPAFGYWGQGTQVTVSS | high polyreactivity
35 | QVQLVESGGALVQAGGSLRLSCAASGSTFYTYVMGWYRQAPGKQREVVADITWRGGSTYYADSENGRFTISRDNAKNTVYLLMNSLKPEDTPVYYCAALSGLLWYGRMYYWGQGTQVTVSS | high polyreactivity
36 | QVQLVESGGGLVQAGGSLRLSCAASGSTFTYYAMGWSRQEPGIEREFVAAISRRGGSTYYADSVKGRFTISRDNAMNTVYLQMKSLKQEDTPVYYCNVVIYSYGINGRYDYWGQGTQDTVSS | high polyreactivity
37 | QVQLVESGGGLVQAGGSLRLSCAASGRIFGAYAMGWYRQAPGKERELVAASSSGGSTYYADSVKGRFTISRDNAKNTVSLQMKSLNPEDTAVYYCAASSGNGYGYWGQGTQVSVSS | high polyreactivity
38 | QVQLVESGGGLVQAGGSLRLSCAASGIIFKLYAMGWYRQAPGKERELVAAITYRGGTTYYADSVKGRFTISRDNAKNTVYLQMNSLKPEDTAVYYCAADNTFRDDYFLYYLFNYNYWGQGTQVTVSS | low polyreactivity
39 | QVQLVESGGGIVQAGGSLRLSCAASGSTFFSYAMGLYRQAPGKERELVAGIDWNGGDTNYADSVKGRFTISRDNAKNTVYLQMNSLKPEETAVYYCATDYSFPGPFRRRERFDYWGQGTQVTVSS | low polyreactivity
40 | QVQLVESGGGLVQAGGSLRLSCAASGITFSRNVMGWSRQAPGKERELVAAISRSGGRTYYADSVKGRFTISRDNAMYTVYLQMNRLKPEDTAVYYCNRDIGGTSVLDDYWGQGNQVTVSS | low polyreactivity
41 | QVQLVESGGGLVQAGGSLRLSCAASGSTFYVNAMGWNRQAPGKEREFVAAISWSGGSTYYADSVKGRFTISRDNAKNTVYLQMNSLKPEDTAVYYCAADRVRKDGVLFDYWGQGTQVTVSS | high polyreactivity
